Source: patent US20190276796A1 (Seagen, published 2019)

Experiments:
human FcγRIIIA V158 = biological target: T1, human FcγRIIIA V158 (human, UniProt P08637 17-254); assay: competition flow cytometry on CHO DG-44 cells expressing human FcγRIIIA V158; competitor 50 nmol/L Alexa Fluor 488 labeled anti-CD70 IgG1
T1 construct: whole, on cells; also called huFcγRIIIA V158; human Fcγ receptor (CD16)

murine FcγRIV = biological target: T2, murine FcγRIV (murine, UniProt A0A0B4J1G0 21-249); assay: competition flow cytometry on CHO DG-44 cells expressing murine FcγRIV; competitor 200 nmol/L Alexa Fluor 488 labeled anti-CD70 IgG1
T2 construct: also called muFcγRIV; murine Fcγ receptor (CD16)
T2 sequence: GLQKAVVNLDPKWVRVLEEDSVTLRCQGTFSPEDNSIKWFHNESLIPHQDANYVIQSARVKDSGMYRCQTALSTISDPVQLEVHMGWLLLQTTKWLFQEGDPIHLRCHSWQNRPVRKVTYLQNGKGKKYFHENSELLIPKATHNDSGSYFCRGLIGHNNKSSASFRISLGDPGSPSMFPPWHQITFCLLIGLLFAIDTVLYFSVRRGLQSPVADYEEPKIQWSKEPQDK

T1 sequence (P08637 17-254 F176V): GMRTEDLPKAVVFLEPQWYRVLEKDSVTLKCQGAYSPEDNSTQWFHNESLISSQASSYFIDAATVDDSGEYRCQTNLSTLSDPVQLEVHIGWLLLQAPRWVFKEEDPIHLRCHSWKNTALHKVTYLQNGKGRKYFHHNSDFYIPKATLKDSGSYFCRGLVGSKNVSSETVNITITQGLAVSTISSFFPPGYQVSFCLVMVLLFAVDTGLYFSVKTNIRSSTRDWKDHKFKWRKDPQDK

EC50 (human FcγRIIIA V158): 113 nM
EC50 (murine FcγRIV): 369 nM
B1: control h1F6 antibody (humanized IgG1 anti-CD70 monoclonal antibody, from CHO DG44 cells cultured without fucose analog; core fucosylated) (antibody)
chain 1: QVQLVQSGAEVKKPGASVKVSCKASGYTFTNYGMNWVRQAPGQGLKWMGWINTYTGEPTYADAFKGRVTMTRDTSISTAYMELSRLRSDDTAVYYCARDYGDYGMDYWGQGTTVTVSSASTKGPSVFPLAPCSRSTSESTAALGCLVKDYFPEPVTVSWNSGALTSGVHTFPAVLQSSGLYSLSSVVTVPSSNFGTQTYTCNVDHKPSNTKVDKTVERKCCVECPPCPAPPVAGPSVFLFPPKPKDTLMISRTPEVTCVVVDVSHEDPEVQFNWYVDGVEVHNAKTKPREEQFNSTFRVVSVLTVVHQDWLNGKEYKCKVSNKGLPAPIEKTISKTKGQPREPQVYTLPPSREEMTKNQVSLTCLVKGFYPSDIAVEWESNGQPENNYKTTPPMLDSDGSFFLYSKLTVDKSRWQQGNVFSCSVMHEALHNHYTQKSLSLSPGK
chain 2: DIVMTQSPDSLAVSLGERATINCRASKSVSTSGYSFMHWYQQKPGQPPKLLIYLASNLESGVPDRFSGSGSGTDFTLTISSLQAEDVAVYYCQHSREVPWTFGQGTKVEIKRTVAAPSVFIFPPSDEQLKSGTASVVCLLNNFYPREAKVQWKVDNALQSGNSQESVTEQDSKDSTYSLSSTLTLSKADYEKHKVYACEVTHQGLSSPVTKSFNRGEC
